The values that follow come from patent publication US20240294611A1.

Assay [1] deals with SARS-CoV-2 B.1.1.7 (variant Alpha) spike on pseudovirus (SARS-CoV-2) (UniProt P0DTC2). Put plainly: cell-based or functional assay.
In assay [2] the target is SARS-CoV-2 D614G spike without stabilizing modifications (on cells or pseudovirus) (SARS-CoV-2) (UniProt P0DTC2). Kind of assay: cell-based or functional assay.

Take “isotype control antibody with irrelevant binding”: the Pseudovirus IC50 in assay [1] and in assay [2] was greater than 5 µM throughout.
